Results from patent US8648045B2, “VDAC1 compositions and methods of use thereof for regulating apoptosis” (Ben Gurion University of the Negev Research and Development …, priority 2005, dated 2014).

T1: mitochondrial bound HK-I (Rattus norvegicus, UniProt P05708)
T1 construct: from tissue; host or cells: rat brain mitochondria
T1 sequence (P05708 1-918): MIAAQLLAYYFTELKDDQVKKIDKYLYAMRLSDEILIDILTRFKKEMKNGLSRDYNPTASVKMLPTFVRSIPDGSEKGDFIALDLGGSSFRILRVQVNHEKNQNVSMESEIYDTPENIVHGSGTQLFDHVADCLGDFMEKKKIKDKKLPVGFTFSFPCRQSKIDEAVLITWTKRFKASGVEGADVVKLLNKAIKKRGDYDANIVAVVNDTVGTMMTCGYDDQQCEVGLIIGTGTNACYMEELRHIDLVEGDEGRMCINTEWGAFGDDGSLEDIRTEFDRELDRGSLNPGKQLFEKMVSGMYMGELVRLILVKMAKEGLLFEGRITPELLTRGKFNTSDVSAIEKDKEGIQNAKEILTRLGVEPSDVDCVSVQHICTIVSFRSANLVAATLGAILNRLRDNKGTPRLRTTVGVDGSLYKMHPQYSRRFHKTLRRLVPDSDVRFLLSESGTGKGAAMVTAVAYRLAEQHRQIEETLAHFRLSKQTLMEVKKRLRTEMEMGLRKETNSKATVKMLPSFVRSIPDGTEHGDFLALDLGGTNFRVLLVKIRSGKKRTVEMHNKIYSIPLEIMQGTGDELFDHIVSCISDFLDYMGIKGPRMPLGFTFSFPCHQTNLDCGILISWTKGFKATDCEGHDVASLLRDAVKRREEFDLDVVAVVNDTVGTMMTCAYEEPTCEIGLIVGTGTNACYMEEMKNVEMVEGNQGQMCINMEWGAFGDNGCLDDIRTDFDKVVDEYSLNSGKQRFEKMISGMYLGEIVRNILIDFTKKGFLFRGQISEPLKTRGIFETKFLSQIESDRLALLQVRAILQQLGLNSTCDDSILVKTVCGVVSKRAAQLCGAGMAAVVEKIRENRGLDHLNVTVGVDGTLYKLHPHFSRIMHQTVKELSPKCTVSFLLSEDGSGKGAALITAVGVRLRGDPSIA

B1: HK-I: Hexokinase-I, anti-apoptotic mitochondrial protein that binds to VDAC; purified from rat brain or over-expressed recombinant (protein)
chain: T1 sequence (P05708 1-918)

Key:
[1] = target: T2, Bcl2 (Homo sapiens, UniProt P10415); details: expression of peptide N in cells overexpressing Bcl2-GFP; Abu Hamad et al., 2009; cited from earlier work
T2 construct: GFP; expressed in transfected cells
T2 sequence (P10415 whole entry, species assumed): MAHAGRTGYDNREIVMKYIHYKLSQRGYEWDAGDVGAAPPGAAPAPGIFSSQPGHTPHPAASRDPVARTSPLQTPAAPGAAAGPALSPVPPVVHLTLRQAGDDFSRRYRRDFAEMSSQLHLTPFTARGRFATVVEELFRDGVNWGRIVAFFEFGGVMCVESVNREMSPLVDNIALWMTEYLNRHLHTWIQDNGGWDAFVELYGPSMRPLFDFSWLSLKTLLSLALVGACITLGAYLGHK

[2] = target: T1, mitochondrial bound HK-I; assay: Detachment of mitochondria-bound HK-I; type: biochemical; details: peptide N
[3] = test system: mitochondria; assay: Release of cytochrome c from mitochondria; type: biochemical, rat; details: HK-I 1 U/ml; Western blot
Description: Mitochondria (0.5 mg/ml) were incubated with or without 1 U/ml of HK-I for 20 min in a solution containing 150 mM KCl, 25 mM NaHCO3, 5 mM succinate, 1 mM MgCl2, 3 mM KH2PO4, 20 mM HEPES, pH 7.4. Swelling was monitored after the addition of 200 μM Ca^2+. Following complete swelling, the samples were centrifuged and mitochondrial pellets (25 μg) or supernatant (40 μl) were subjected to SDS-PAGE and Western blot analyses using monoclonal anti-cytochrome C antibodies.
(§1) FIG. 1A: Purified recombinant native or E72Q-mutated mVDAC1 was reconstituted into a PLB (planar lipid bilayer) in symmetrical solutions of 0.5 M NaCl. Currents through VDAC1 channel in response to a voltage step from zero to −20 mV were recorded before and 5 min after the addition of HK-I (28.6 mU/ml). The dashed lines indicate the zero-current level. […] FIG. 1C: Cytochrome c release was assayed, using a monoclonal anti-cytochrome c antibody, in the absence or the presence of HK-I (1 U/ml), chymotrypsin-treated HK-I (1 U/ml) or CsA (10 micro M).
The effects of HK-I are similar to those of the well-known inhibitor of PTP, cyclosporine A (CsA) (FIGS. 1C and 2B).

[4] = test system: U937 cells; assay: HK-I over-expression protection against apoptotic cell death in double-transfected cells; type: cell-based, human; details: staurosporine (STS)
Description: U937 cells were transfected with pcDNA3.1-HisA or pcDNA3.1-HisA-HK-I (neomycin resistance; provided by Dr. J. E. Wilson, University of Michigan) by electroporation, and grown in complete RPMI 1640 with neomycin ([…]). After 12 days, the selected cells were transfected with pEGFP, pEGFP-mVDAC1 or pEGFP-E72Q-mVDAC1 and were grown in the presence of neomycin ([…]). The viability of double-transfected cells was analyzed during 48 to 76 hr.
The effect of HK-I over-expression on apoptotic cell death of the GFP-tagged version of native and E72Q-mVDAC1 over-expressing cells was examined.
Since VDAC1 overexpression induces cell death, U937 cells (FIG. 4A, 4B) or T-Rex™ 293 human embryonic kidney cells (FIG. 4B) were first transformed to stably over-express HK-I and then transfected with native, E65Q, E72Q, K73L, D77N, N75A, or G67A mutated mVDAC1-GFP. […] This β-loop includes amino acid residues T64 to about N78.

[5] = test system: permeability transition pore (PTP); assay: PTP opening monitored by Ca2+ accumulation and mitochondrial swelling; type: biochemical, rat; details: Ca2+ accumulation and swelling of energized mitochondria
Description: Ca^2+ uptake by freshly prepared rat liver mitochondria (0.5 mg/ml) was assayed for 1 to 20 minutes at 30° C. in the presence of 225 mM mannitol, 75 mM sucrose, 120 μM CaCl2 (containing 3×10^4 cpm/nmol [^45Ca^2+]), 5 mM HEPES/KOH, 5 mM succinate and 0.1 mM Pi, pH 7.0. Uptake of ^45Ca^2+ was terminated by rapid Millipore filtration followed by a wash with 5 ml of 150 mM KCl.
Ca^2+-induced mitochondria large amplitude swelling was assayed in freshly-prepared mitochondria under the same conditions as for Ca^2+ accumulation, except that the temperature was 24° C. Cyclosporine A (CsA)-sensitive mitochondrial swelling was initiated upon addition of Ca^2+ (0.2 mM) to the sample. Absorbance changes at 520 nm were monitored every 15-20 sec with an Ultraspec 2100 spectrophotometer.
The failure of non-binding species of HK, such as yeast HK, or trypsin- or chymotrypsin-treated HK-I (FIG. 2D) to prevent PTP opening, confirmed the specificity of the HK-I effect, and of the requirement of the HK-I N-terminal region for its interaction with VDAC.
Mitochondrial swelling was assayed in the absence (control ●) or the presence of HK-I (gray ●) and in presence HK-I pre-incubated with peptide LP1. Mitochondrial swelling was assayed as in FIG. 2 in the absence and the presence of peptide LP1 (0.1 mM or 0.3 mM), brain HK-I (0.25 U/ml) or with HK-I pre-incubated for 10 min with LP1. […]

[6] = target: T3, recombinant native mVDAC1 (Mus musculus, UniProt Q60932); assay: VDAC channel recording in planar lipid bilayer (PLB); type: biochemical; details: HK-I 28.6 mU/ml, 5 min; voltage step 0 to −20 mV; 0.5 M NaCl
T3 construct: made in house; host or cells: yeast (purified from mitochondria of yeast expressing mVDAC1)
T3 sequence (Q60932 14-296 limits assumed): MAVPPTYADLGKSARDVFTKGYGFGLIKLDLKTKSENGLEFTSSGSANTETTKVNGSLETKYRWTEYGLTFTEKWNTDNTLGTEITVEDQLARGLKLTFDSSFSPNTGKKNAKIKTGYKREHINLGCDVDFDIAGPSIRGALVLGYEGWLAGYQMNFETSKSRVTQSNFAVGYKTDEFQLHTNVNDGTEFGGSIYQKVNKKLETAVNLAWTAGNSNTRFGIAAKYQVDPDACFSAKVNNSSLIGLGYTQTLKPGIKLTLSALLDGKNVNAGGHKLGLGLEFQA
Description: (§2) Native and mutated mVDAC1 were extracted with lauryldimethylamine N-oxide (LDAO) from mitochondria isolated from yeast expressing various VDACs, and purified by chromatography on hydroxyapatite followed by carboxymethyl (CM)-cellulose where LDAO was replaced by β-OG (β-octylglucoside).
(§3) Reconstitution of purified VDAC into a planar lipid bilayer (PLB) multi-channel current recording and data analyses were carried as follows. Briefly, PLB were prepared from soybean asolactin dissolved in n-decane (50 mg/ml) in a chamber containing 10 mM HEPES/KOH pH 7.4 and 0.5 or 1M NaCl (cis/trans). Only PLBs with a resistance greater than 100 GΩ were used. Purified VDAC (about 1 ng) was added to the chamber defined as the cis side. After one or a few channels inserted into the PLB, excess protein was removed by perfusion of the cis chamber with 20 volumes of a solution (with the same composition as before perfusion), in order to prevent further protein incorporation. Currents were recorded under voltage-clamp mode using a Bilayer Clamp amplifier (Warner Instrument, USA). The currents were measured with respect to the trans side of the membrane (ground). The currents were low-pass filtered at 1 kHz, using a Bessal filter (Frequency Devices, USA) and digitized on-line using a Digidata 1200 interface board and pCLAMP 6 software (Axon Instruments). Sigma Plot 2000 scientific software was used for data analyses. Experiments were performed at 23-25° C.
as §1
(§4) RuR, known to interact with several Ca^2+ binding proteins and to inhibit Ca^2+ transport in mitochondria, inhibited channel activity of native but not of E72Q-mutated VDAC1 (FIG. 5E). Purified recombinant native and E72Q-mVDAC1 variant were reconstituted into a planar lipid bilayer (PLB) and the currents produced in response to voltages stepped from a holding potential of 0 mV to −20 mV were recorded. […] The level of inhibition calculated from […] different experiments was 89.2±2.8% (mean±SD, n=9). In contrast, the channel activity of E72Q-mVDAC1 was not inhibited by RuR in all ten experiments.

[7] = target: T4, E72Q-mVDAC1 (Mus musculus, UniProt Q60932, E72Q); assay: as above; type: biochemical; details: HK-I 28.6 mU/ml, 5 min; voltage step 0 to −20 mV; 0.5 M NaCl
T4 construct: made in house; host or cells: yeast (purified from mitochondria of yeast expressing mutated mVDAC1)
T4 sequence (Q60932 14-296 E72Q limits assumed): as the sequence (Q60932 14-296 limits assumed) above, with E59Q counted along it
Description: as §2, §3, §1, §4

effect of HK-I on VDAC1 channel [6] | Molecule | effect on anti-apoptotic effect of Bcl2 against STS-induced apoptosis [1] | detachment or prevention of HK-1 binding to the mitochondria [2] | release of cytochrome c from mitochondria [3] | protection by HK-I over-expression against STS-induced apoptosis [4] | prevention of PTP opening [5] | effect of HK-I on VDAC1 channel [7]
 | MAVPPTYADLGKSARDVFTKGYGFGL [Peptide N, 26 amino acid peptide derived from the N-terminal cytosolic segment of VDAC1, amino acids 1-26] | reversed the anti-apoptotic effect of BCl2 | Detachment or prevention of HK-1 binding to the mitochondria was also demonstrated |  |  |  | 
induces its closure | B1 |  |  | prevented the release of cytochrome c from mitochondria | protects against apoptosis induced by STS | inhibited PTP opening | able to close native VDAC1 but not mutated E72Q-VDAC1
